PMC7299998, “Recombinant Bri3 BRICHOS domain is a molecular chaperone with effect against amyloid formation and non-fibrillar protein aggregation” (Scientific Reports, 2020)

T1: citrate synthase (CS) from porcine heart (porcine, UniProt P00889 28-464)
T1 construct: citrate synthase, mitochondrial, from porcine heart; Used native (fresh) or partly heat-denatured (2 h at 45 °C); the assays tell the two states apart; source: bought: Sigma-Aldrich (from porcine heart)
T1 sequence (looked up): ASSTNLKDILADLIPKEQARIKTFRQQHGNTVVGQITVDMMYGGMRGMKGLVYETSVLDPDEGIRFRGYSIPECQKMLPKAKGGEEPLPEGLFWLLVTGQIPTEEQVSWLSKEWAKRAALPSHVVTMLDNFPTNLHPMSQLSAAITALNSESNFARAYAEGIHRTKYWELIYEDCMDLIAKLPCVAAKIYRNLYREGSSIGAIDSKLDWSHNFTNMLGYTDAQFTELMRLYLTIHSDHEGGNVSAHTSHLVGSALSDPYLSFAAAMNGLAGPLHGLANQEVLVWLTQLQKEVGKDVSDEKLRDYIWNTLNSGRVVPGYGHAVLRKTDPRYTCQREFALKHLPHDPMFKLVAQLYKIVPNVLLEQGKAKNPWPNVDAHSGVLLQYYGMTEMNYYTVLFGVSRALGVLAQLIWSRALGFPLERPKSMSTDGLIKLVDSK

B1: recombinant human (rh) Bri2 BRICHOS domain (domain or fragment, UniProt Q9Y287 90-236, looked up)
chain: GIKYIKDDVILNEPSADAPAALYQTIEENIKIFEEEEVEFISVPVPEFADSDPANIVHDFNKKLTAYLDLNLDKCYVIPLNTSIVMPPRNLLELLINIKAGTYLPQSYLIHEHMVITDRIENIDHLGFFIYRLCHDKETYKLQRRET
notes: Bri2 (ITM2B), human, residues 90-236 (linker part and BRICHOS domain); The modelled and aligned Bri2 BRICHOS is 113-231; the expressed construct is 90-236; Vector pET-32c(+); also called Bri2(90-236); source: E. coli Shuffle T7, purified (Ni-Sepharose from 2 M urea extract, thrombin cleavage, second Ni-Sepharose); not shown: Trx, N-terminal, cleaved; His6, N-terminal, cleaved; S tag, N-terminal, …
B2: recombinant human (rh) Bri3 BRICHOS domain (domain or fragment, UniProt Q9NQX7 112-230, looked up)
chain: MELEEDVKIYLDENYERINVPVPQFGGGDPADIIHDFQRGLTAYHDISLDKCYVIELNTTIVLPPRNFWELLMNVKRGTYLPQTYIIQEEMVVTEHVSDKEALGSFIYHLCNGKDTYRL
notes: Bri3, human, residues 112-230 (BRICHOS domain); Bri3 is a 267-residue protein; Mainly high molecular weight oligomers, partly held by disulfide bonds; Calculated monomer mass 17.3 kDa with the S tag; Vector pET-32c(+); also called Bri3(112-230); rh (S-tag) Bri3 BRICHOS; source: E. coli Shuffle T7, purified (Ni-Sepharose from 2 M urea extract, thrombin cleavage, second Ni-Sepharose); not shown: …

Assays:
[1] = target: the molecule itself; test: negative-stain transmission electron microscopy; oligomers isolated by SEC (Superose 6, 20 mM ammonium acetate pH 8.0), uranyl acetate stain, reference-free 2D classification, Feret's diameters
[2] = target: T1, citrate synthase (CS) from porcine heart; test: SEC; supernatant of CS:rh Bri3 BRICHOS 1:2 molar ratio after 2 h at 45 °C and centrifugation; Superose 6, 20 mM ammonium acetate pH 8.0, 0.7 ml/min; peak fractions by reducing SDS-PAGE; conditions: both partners purified
[3] = target: the molecule itself; test: SEC; rh BRICHOS alone on Superose 6 10/300 GL, 0.5 ml/min, 20 mM PB, 0.2 mM EDTA pH 8.0 or 20 mM ammonium acetate pH 8.0; hydrodynamic diameter by comparison with standards

Binder | binding result [1] | binding result [2] | binding result [3]
B1 | binds |  | 
B2 |  | binds | binds
